From paper PMC7641332 (Nucleic Acids Research, 2020) come the findings set out here.

First the molecules themselves.
B3: GST-BRCA2NT-HA-His10 (domain or fragment)
chain: MPIGSKERPTFFEIFKTRCNKADLGPISLNWFEELSSEAPPYNSEPAEESEHKNNNYEPNLFKTPQRKPSYNQLASTPIIFKEQGLTLPLYQSPVKELDKFKLDLGRNVPNSRHKSLRTVKTKMDQADDVSCPLLNSCLSESPVVLQCTHVTPQRDKSVVCGSLFHTPKFVKGRQTPKHISESLGAEVDPDMSWSSSLATPPTLSSTVLIVRNEEASETVFPHDTTANVKSYFSNHDESLKKNDRFIASVTDSENTNQREAASHGFGKTSGNSFKVNSCKDHIGKSMPNVLEDEVYETVVDTSEEDSFSLCFSKCRTKNLQKVRTSKTRKKIFHEANADECEKSKNQVKEKYSFVSEVEPNDTDPLDSNVANQKPFESGSDKISKEVVPSLACEWSQLTLSGLNGAQMEKIPLLHISSCDQNISEKDLLDTENKRKKDFLTSENSLPRISSLPKSEKPLNEETVVNKRDEEQHLESHTDCILAVKQAISGTSPVASSFQGIKKSIFRIRESPKETFNASFSGHMTDPNFKKETEASESGLEIHTVCSQKEDSLCPNLIDNGSWPATTTQNSVALKNAGLISTLKKKTNKFIYAIHDETSYKGKKIPKDQKSELINCSAQFEANAFEAPLTFANADSGLLHSSVKRSCSQNDSEEPTLSLTSSFGTILRKCSRNETCSNNTVISQDLDYKEAKCNKEKLQLFITPEADSLSCLQE
B4: 2× MBP-BRCA2NT-FLAG-His10 (domain or fragment)
chain: MPIGSKERPTFFEIFKTRCNKADLGPISLNWFEELSSEAPPYNSEPAEESEHKNNNYEPNLFKTPQRKPSYNQLASTPIIFKEQGLTLPLYQSPVKELDKFKLDLGRNVPNSRHKSLRTVKTKMDQADDVSCPLLNSCLSESPVVLQCTHVTPQRDKSVVCGSLFHTPKFVKGRQTPKHISESLGAEVDPDMSWSSSLATPPTLSSTVLIVRNEEASETVFPHDTTANVKSYFSNHDESLKKNDRFIASVTDSENTNQREAASHGFGKTSGNSFKVNSCKDHIGKSMPNVLEDEVYETVVDTSEEDSFSLCFSKCRTKNLQKVRTSKTRKKIFHEANADECEKSKNQVKEKYSFVSEVEPNDTDPLDSNVANQKPFESGSDKISKEVVPSLACEWSQLTLSGLNGAQMEKIPLLHISSCDQNISEKDLLDTENKRKKDFLTSENSLPRISSLPKSEKPLNEETVVNKRDEEQHLESHTDCILAVKQAISGTSPVASSFQGIKKSIFRIRESPKETFNASFSGHMTDPNFKKETEASESGLEIHTVCSQKEDSLCPNLIDNGSWPATTTQNSVALKNAGLISTLKKKTNKFIYAIHDETSYKGKKIPKDQKSELINCSAQFEANAFEAPLTFANADSGLLHSSVKRSCSQNDSEEPTLSLTSSFGTILRKCSRNETCSNNTVISQDLDYKEAKCNKEKLQLFITPEADSLSCLQE
B5: 2× MBP-BRCA2CT-FLAG-His10 (domain or fragment)
chain: QEKSLKASKSTPDGTIKDRRLFMHHVSLEPITCVPFRTTKERQEIQNPNFTAPGQEFLSKSHLYEHLTLEKSSSNLAVSGHPFYQVSATRNEKMRHLITTGRPTKVFVPPFKTKSHFHRVEQCVRNINLEENRQKQNIDGHGSDDSKNKINDNEIHQFNKNNSNQAVAVTFTKCEEEPLDLITSLQNARDIQDMRIKKKQRQRVFPQPGSLYLAKTSTLPRISLKAAVGGQVPSACSHKQLYTYGVSKHCIKINSKNAESFQFHTEDYFGKESLWTGKGIQLADGGWLIPSNDGKAGKEEFYRALCDTPGVDPKLISRIWVYNHYRWIIWKLAAMECAFPKEFANRCLSPERVLLQLKYRYDTEIDRSRRSAIKKIMERDDTAAKTLVLCVSDIISLSANISETSSNKTSSADTQKVAIIELTDGWYAVKAQLDPPLLAVLKNGRLTVGQKIILHGAELVGSPDACTPLEAPESLMLKISANSTRPARWYTKLGFFPDPRPFPLPLSSLFSDGGNVGCVDVIIQRAYPIQWMEKTSSGLYIFRNEREEEKEAAKYVEAQQKRLEALFTKIQEEFEEHEENTTKPYLPSRALTRQQVRALQDGAELYEAVKNAADPAYLEGYFSEEQLRALNNHRQMLNDKKQAQIQLEIRKAMESAEQKEQGLSRDVTTVWKLRIVSYSKKEKDSVILSIWRPSSDLYSLLTEGKRYRIYHLATSKSKSKSERANIQLAATKKTQYQQLPVSDEILFQIYQPREPLHFSKFLDPDFQPSCSEVDLIGFVVSVVKKTGLAPFVYLSDECYNLLAIKFWIDLNEDIIKPHMLIAASNLQWRPESKSGLLTLFAGDFSVFSASPKEGHFQETFNKMKNTVENIDILCNEAENKLMHILHANDPKWSTPTKDCTSGPYTAQIIPGTGNKLLMSSPNCEIYYQSPLSLCMAKRKSVSTPVSAQMTSKSCKGEKEIDDQKNCKKRRALDFLSRLPLPPPVSPICTFVSPAAQKAFQPPRSCGTKYETPIKKKELNSPQMTPFKKFNEISLLESNSIADEELALINTQALLSGSTGEKQFISVSESTRTAPTSSEDYLRLKRRCTTSLIKEQESSQASTEECEKNKQDTITTKKYI

Experiment in all cases: pull-down
The target of experiment [1] is B4.
For experiment [2], the target named is T1, 2× MBP-BRCA2OB2-His10 (human, UniProt P51587 2780-3080).
T1 sequence: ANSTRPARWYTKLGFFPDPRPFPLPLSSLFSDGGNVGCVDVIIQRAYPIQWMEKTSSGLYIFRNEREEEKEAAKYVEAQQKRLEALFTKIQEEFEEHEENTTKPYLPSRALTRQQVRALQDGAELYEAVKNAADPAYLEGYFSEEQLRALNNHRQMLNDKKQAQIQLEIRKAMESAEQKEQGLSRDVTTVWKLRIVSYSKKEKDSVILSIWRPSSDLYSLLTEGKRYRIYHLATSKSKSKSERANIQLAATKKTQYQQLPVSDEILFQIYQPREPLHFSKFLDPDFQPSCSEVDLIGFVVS

Experiment [3] addresses B5.
The target in experiment [4] is B3.

B1: GST-BRCA2N7 (domain or fragment)
chain: VTDSENTNQREAASHGFGKTSGNSFKVNSCKDHIGKSMPNVLEDEVYETVVDTSEEDSFSLCFSKCRTKNLQKVRTSKTRKKIFHEANADECEKSKNQVKEKYSFVSEVEPNDTDPLDSNV
For B1, the binding result in experiment [1] is “binds”.

B2: GST-BRCA2N9 (domain or fragment)
chain: ILAVKQAISGTSPVASSFQGIKKSIFRIRESPKETFNASFSGHMTDPNFKKETEASESGLEIHTVCSQKEDSLCPNLIDNGSWPATTTQNSVALKNAGLISTLKKKTNKFIYAIHDETSYKGKKIPKDQKSELINCSAQFEANAFEAPLTFANADSGLLHSSVKRSCSQNDSEEPTLSLTSSFGTILRKCSRNETCSNNTVISQDLDYKEAKCNKEKLQLFITPEADSLSCLQE
For B2, the binding result in experiment [1] and in experiment [2] was “binds” in each case.

Turning to B3, the binding result in experiment [3] was “binds”. For the molecule B4, in experiment [4], the binding result is listed as “binds”. As for B5, in experiment [4], the “fold stronger than the interaction of MBP-BRCA2NT with GST-BRCA2NT” value was approximately 6 fold.
